Reference: the supplement of paper PMC9112550, “Optimization of the antimicrobial peptide Bac7 by deep mutational scanning” (BMC Biology, 2022)

System: Escherichia coli TOP10
Assay: shrunken log2 fold change of peptide-encoding DNA abundance (4.5 h post-induction vs induction); higher = less antimicrobial activity (less host growth inhibition)
Settings: time post-induction: 4.5 h; library: site-saturation at positions 5, 18, 19, 20
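Further: peptides expressed intracellularly from a pBAD plasmid library in pooled LB shake-flask culture, induced with 0.3% L-arabinose, DNA abundance read by NGS, three biological replicates, DESeq2 with apeglm shrinkage.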

Row | Sequence | shrunken log2 fold change
1 | RRIRERPPRLPRPRPRPWCCPRP | -0.244
2 | RRIRDRPPRLPRPRPRPISGPRP | 0.0039
3 | RRIRGRPPRLPRPRPRPHELPRP | 0.871
4 | RRIRGRPPRLPRPRPRPFNMPRP | -1.07
5 | RRIRPRPPRLPRPRPRPQSPPRP | 0.0713
6 | RRIRNRPPRLPRPRPRPKKGPRP | 0.0558
7 | RRIRNRPPRLPRPRPRPFWYPRP | 0.0148
8 | RRIRGRPPRLPRPRPRPNDIPRP | -0.528
9 | RRIRPRPPRLPRPRPRPNEIPRP | -0.139
10 | RRIRFRPPRLPRPRPRPKNLPRP | -0.225
11 | RRIRSRPPRLPRPRPRPHPSPRP | 0.0251
12 | RRIRVRPPRLPRPRPRPYHDPRP | -0.182
13 | RRIRPRPPRLPRPRPRPPKDPRP | 0.225
14 | RRIRSRPPRLPRPRPRPWKDPRP | -0.00804
15 | RRIRARPPRLPRPRPRPGPHPRP | 0.568
16 | RRIRRRPPRLPRPRPRPEIAPRP | 0.84
17 | RRIRHRPPRLPRPRPRPWMDPRP | 0.113
18 | RRIRGRPPRLPRPRPRPRNRPRP | 0.637
19 | RRIRERPPRLPRPRPRPHVCPRP | -0.0153
20 | RRIRCRPPRLPRPRPRPSVVPRP | -0.261
21 | RRIRLRPPRLPRPRPRPYFQPRP | -0.269
22 | RRIRPRPPRLPRPRPRPHYHPRP | -0.936
23 | RRIRSRPPRLPRPRPRPWHMPRP | 0.17

Row | Sequence | shrunken log2 fold change
24 | RRIRMRPPRLPRPRPRPDGPPRP | 0.0285
25 | RRIRRRPPRLPRPRPRPEMIPRP | -0.00643
26 | RRIRFRPPRLPRPRPRPLIRPRP | -0.382
27 | RRIRARPPRLPRPRPRPLNCPRP | -0.08
28 | RRIRLRPPRLPRPRPRPFIQPRP | -0.418
29 | RRIRYRPPRLPRPRPRPFKQPRP | -1.41
30 | RRIRERPPRLPRPRPRPEQRPRP | 0.32
31 | RRIRPRPPRLPRPRPRPGQPPRP | -0.0656
32 | RRIRNRPPRLPRPRPRPNGHPRP | -0.41
33 | RRIRARPPRLPRPRPRPKEHPRP | 0.217
34 | RRIRVRPPRLPRPRPRPAWYPRP | 0.0171
35 | RRIRDRPPRLPRPRPRPWDWPRP | 1.03
36 | RRIRPRPPRLPRPRPRPNTQPRP | -0.159
37 | RRIRLRPPRLPRPRPRPIKMPRP | -0.347
38 | RRIRFRPPRLPRPRPRPYAFPRP | -0.193
39 | RRIRTRPPRLPRPRPRPRSEPRP | 0.116
40 | RRIRIRPPRLPRPRPRPQSEPRP | -0.219
41 | RRIRLRPPRLPRPRPRPSVYPRP | -0.584
42 | RRIRNRPPRLPRPRPRPIWWPRP | -0.141
43 | RRIRCRPPRLPRPRPRPLSYPRP | -1.29
44 | RRIRARPPRLPRPRPRPPMFPRP | 0.283
45 | RRIRSRPPRLPRPRPRPSAGPRP | 0.191
46 | RRIRCRPPRLPRPRPRPLYQPRP | -0.543

Row | Sequence | shrunken log2 fold change
47 | RRIRTRPPRLPRPRPRPVSPPRP | -0.194
48 | RRIRDRPPRLPRPRPRPLLKPRP | 0.437
49 | RRIRRRPPRLPRPRPRPQRDPRP | 0.179
50 | RRIRSRPPRLPRPRPRPVICPRP | -0.0365
51 | RRIRCRPPRLPRPRPRPFPQPRP | -0.265
52 | RRIRYRPPRLPRPRPRPALFPRP | -0.0533
53 | RRIRKRPPRLPRPRPRPKATPRP | 0.0944
54 | RRIRTRPPRLPRPRPRPRDYPRP | 0.104
55 | RRIRTRPPRLPRPRPRPDQHPRP | -0.626
56 | RRIRNRPPRLPRPRPRPMIMPRP | -1.96
57 | RRIRPRPPRLPRPRPRPDMRPRP | 0.861
58 | RRIRGRPPRLPRPRPRPKQMPRP | 1.03
59 | RRIRWRPPRLPRPRPRPMADPRP | 0.0452
60 | RRIRMRPPRLPRPRPRPTMRPRP | 1.4
61 | RRIRCRPPRLPRPRPRPNYHPRP | -0.93
62 | RRIRKRPPRLPRPRPRPHNEPRP | 0.323
63 | RRIRRRPPRLPRPRPRPLLRPRP | 0.44
64 | RRIRHRPPRLPRPRPRPCVSPRP | -0.311
65 | RRIRRRPPRLPRPRPRPLHWPRP | 0.235
66 | RRIRERPPRLPRPRPRPHWWPRP | 0.193
67 | RRIRFRPPRLPRPRPRPWLTPRP | -0.0554
68 | RRIRCRPPRLPRPRPRPEEWPRP | 0.0214
69 | RRIRERPPRLPRPRPRPRHEPRP | -0.304

Row | Sequence | shrunken log2 fold change
70 | RRIRTRPPRLPRPRPRPMFPPRP | 0.0617
71 | RRIRFRPPRLPRPRPRPNKYPRP | -0.684
72 | RRIRVRPPRLPRPRPRPMLVPRP | 0.0916
73 | RRIRRRPPRLPRPRPRPACLPRP | 0.623
74 | RRIRGRPPRLPRPRPRPLSDPRP | 0.365
75 | RRIRARPPRLPRPRPRPHINPRP | -0.325
76 | RRIRVRPPRLPRPRPRPVCKPRP | -0.444
77 | RRIRSRPPRLPRPRPRPSHIPRP | -0.849
78 | RRIRVRPPRLPRPRPRPCGYPRP | 0.0222
79 | RRIRTRPPRLPRPRPRPSSDPRP | 1.82
80 | RRIRVRPPRLPRPRPRPLVDPRP | -0.196
81 | RRIRCRPPRLPRPRPRPYFMPRP | -0.91
82 | RRIRRRPPRLPRPRPRPIGAPRP | 0.435
83 | RRIRNRPPRLPRPRPRPKTLPRP | -0.134
84 | RRIRCRPPRLPRPRPRPDYCPRP | 0.25
85 | RRIRARPPRLPRPRPRPSHKPRP | 0.0213
86 | RRIRIRPPRLPRPRPRPIAGPRP | -0.017
87 | RRIRPRPPRLPRPRPRPFKDPRP | -0.93
88 | RRIRYRPPRLPRPRPRPKVKPRP | -0.233
89 | RRIRKRPPRLPRPRPRPIAGPRP | -0.0506
90 | RRIRIRPPRLPRPRPRPSETPRP | -0.297
91 | RRIRVRPPRLPRPRPRPIFFPRP | 0.125
